Assay: label from the status in PepcDB records

Sequence: MSLKRFDLIIRSSTVVTETTTYRADVAIRNGIVSAITEPGSISSDDGPAIDGTGLHLFPGMVDVHVHFNEPGRTEWEGFASGSKSLAAGGVTTYFDMPLNSNPPTITREELDKKRQLANEKSLVDYRFWGGLVPGNIDHLQDLHDGGVIGFKAFMSECGTDDFQFSHDETLLKGMKKIAALGSILAVHAESNEMVNALTTIAIEEQRLTVKDYSEARPIVSELEAVERILRFAQLTCCPIHICHVSSRKVLKRIKQAKGEGVNVSVETCPHYLLFSLDEFAEIGYLAKCAPPLRERQEVEDLWDGLMAGEIDLISSDHSPSLPQMKTGKTIFEVWGGIAGCQNTLAVMLTEGYHKRKMPLTQIVQLLSTEPAKRFGLYPQKGTIQVGAEASFTLIDLNESYTLNASDLYYRHPISPYVGQRFRGKVKHTICQGKHVYQDHEGHHHHHH
- protein production: not failed

Sequence: MTQELQTLEVEEEMMMRKFYELMSRQRLNKKMIMLVLIEIDVGSFEENGEDSKCVTWTERHKPLKGNNAAGVLPLQRLVRDGLLAYGPEVF
- protein production: failed

Sequence: MHSDSGSDSGSDSGSGSPMVSSIHPSEPIQPMEHVLEEADARLLTEVGFLAAAVSDLTRADAIFNALQRVRPGRTHPCIGLAVARMNAGLPDEAAEILANFQPAQPEDRSELDAWCGFALLLAGRSDEARRMLQRAIDAGGEAARLAQVVLDSGPAMMRPAPLQSEPLPGAPG
- protein production: failed

Sequence: MTPSLSGLPPIRTALIGYGFAGKTFHAPLIRAVPALCLEHVVSRDPGRVHADLPEARVSADPDEAIEAADIDLVVIASPNATHASLAERALRAGKHVVVDKPFTVTLAEARRLADLARERPGQVLSVFQNRRFDSDFLAVEAALQAGSIGPVRYFESAIERFRPQVRDRWREHDLPGSGLWFDLGPHLLDQALCLFGVPQRVHGHLRRLREGALTDDWFEVLLDYPHCQVALRASMLAANPAPRFNVHGDHGSLLKAGADIQEAQLLQGLHPGSAGWGRDPDLLQHIDGQGLRQSLVTPAGDQSRYYQALAAAIRGQSRNPVSAQQACALMALLELARRSAEEGRSLPVELRDEERQAWN
- protein production: failed

Sequence: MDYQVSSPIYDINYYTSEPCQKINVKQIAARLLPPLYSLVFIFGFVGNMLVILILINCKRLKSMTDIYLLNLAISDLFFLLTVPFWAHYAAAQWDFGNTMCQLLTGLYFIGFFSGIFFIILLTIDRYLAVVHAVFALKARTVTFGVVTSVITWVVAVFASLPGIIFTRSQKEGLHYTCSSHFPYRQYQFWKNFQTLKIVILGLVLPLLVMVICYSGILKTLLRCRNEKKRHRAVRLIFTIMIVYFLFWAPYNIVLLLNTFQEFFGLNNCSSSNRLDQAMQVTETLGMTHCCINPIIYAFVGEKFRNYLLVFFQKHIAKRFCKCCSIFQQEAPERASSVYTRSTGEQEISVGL
- protein production: not failed

Sequence: MPFTLHLRSRLPSAIRSLILQKKPNIRNTSSMAGELRPASLVVLPRSLAPAFERFCQVNTGPLPLLGQSEPEKRMLPPQGAISETRMGHPQFWKYEFGACTGSLASLEQYSEQLKDMVAFFLGCSFSLEEALEKAGLPRRDPAGHSQAGAYKTTVPCVTHAGFCCPLVVTMRPIPKDKLEGLVRACCSLGGEQGQPVHMGDPELLGIKELSKPAYGDAMVCPPGEVPVFWPSPLTSLGAVSSCETPLAFASIPGCTVMTDLKDAKAPPGCLTPERIPEVHHISQDPLHYSIASVSASQKIRELESMIGIDPGNRGIGHLLCKDELLKASLSLSHARSVLITTGFPTHFNHEPPEETDGPPGAVALVAFLQALEKEVAIIVDQRAWNLHQKIVEDAVEQGVLKTQIPILTYQGGSVEAAQAFLCKNGDPQTPRFDHLVAIERAGRAADGNYYNARKMNIKHLVDPIDDLFLAAKKIPGISSTGVGDGGNELGMGKVKEAVRRHIRHGDVIACDVEADFAVIAGVSNWGGYALACALYILYSCAVHSQYLRKAVGPSRAPGDQAWTQALPSVIKEEKMLGILVQHKVRSGVSGIVGMEVDGLPFHNTHAEMIQKLVDVTTAQV
- protein production: failed

Sequence: MIFIKKPSLKALSCASILFALSGCVPPNQFGEDYSRDVCKTKRDELIALDNHFSSNMVAGGIIGTLAGAGLGAAAAAATNGDIITATLIGAAAGMAVGAGSAYWNELSKQHGEGELLLFSLLGDMRRDEEKVTKAQIALDNLMSCRRTEAAQVHADYRAKRISAQEAKTRMEAIRRRAEKDVSVAKDINKGVQDRRGSYEYAFEQSKKIKTKNKKDKKKIEKTYTSMDKYCGSYNTSVQVAETSLNTEFKADGFTSSYLIYPDSTPNTQISCR
- protein production: failed

Sequence: MKELIRKLTEAFGPSGREEEVRSIILEELEGHIDGHRIDGLGNLIVWKGSGEKKVILDAHIDEIGVVVTNVDDKGFLTIEPVGGVSPYMLLGKRIRFENGTIGVVGMEGETTEERQENVRKLSFDKLFIDIGANSREEAQKMCPIGSFGVYDSGFVEVSGKYVSKAMDDRIGCAVIVEVFKRIKPAVTLYGVFSVQEEVGLVGASVAGYGVPADEAIAIDVTDSADTPKAIKRHAMRLSGGPALKVKDRASISSKRILENLIEIAEKFDIKYQMEVLTFGGTNAMGYQRTREGIPSATVSIPTRYVHSPSEMIAPDDVEATVDLLIRYLGA
- protein production: not failed

Sequence: METGTHVRDVIFPGGNAAPDAGSVVAAIHQLPTLRLLSLDAHGRVLDWINWQDAACLYARDAVSWTLGEPCMQIHGGISRLTGERSTLELHPIIAARGHARSRALDPTPTLSNTALFARDAQLCMYCGQHFSRPHLTRDHVMPVSKGGRDSWENVVTACFQCNSRKANRTPQQAHMPLLAVPYRPSWIEHLILSNRNILSDQMAFLRAQLPKRSKLSLQAGAPRVADPG
- protein production: failed

Sequence: MIDGNSIIVSSPEVAFPIAVRYAWADNPICNLYNGVNLPASPFRTDDWQGILMVINRYSCFDLPSEIDVTHKKITMNKLIYLVIFSFLSTSIYAQMKDLVQYVNTLQGTDSHFGLSYGNTYPTTGMPYAMHTWSAQTGKNGEGWKYQYAVDNIRGFCQSHQCSPWMSDYAVYSFMPMVGKLVVNQEMRATKFSHDNEIAKPHYYKVMLDNGITTEMAPTTRGVHLRFSYPSTEDAYLVIDGYTDMSEIKIDPAKRQISGWVNNQRFVNNSKTFRSYFVVQFDKAFEDYGMWENQKDEIYPKKLEGEGKGYGAYIKFKKGSKVQAKAASSYISAEQAVITLNDELGKDKNLEATKIRGHKTWNELLNRIQVEGGTDEQMKTFYSCLFRANLFSRKFYERKANGEPYYYSPYDGKVYDGYMYTDNGFWDTFRSQFPLTNILHPTMQGRYMNALLAAQEQCGWLPSWSAPGETGGMLGNHSISLLADAWAKGIRTFDPEKALKAYAHEAMNKGPWGGANGRGFWKEYFELGYVPYPESMGSSAQTMEYAYDDFCGYQLAKMTGNKHYQEVFARQMYNYKNVFDPSIGFMRGKGVDGKWQEPFDPLEWGGPFCEGNAWHYTWSVFHDVEGLIDLFGSDQRFTTKMDSVFTLPSTIKPGTYGGVIHEMKEMELSGMGQYAHGNQPIQHMPYLYSYAGQPWKTQYWVRQIVERLYNSTERGYPGDEDQGGMSSWYILSSLGIYAVCPGTDEYVIGSPLFKKATITMENGNKFVIEANNNSKENLYIQSATLNGRVLDKNFIRYDDIADGGIIRFEMGSQPNKERCTSKYAAPFSLSKE
- protein production: failed

Sequence: MNPTLSAAVTAPSAGTQDAEAEIRDLAQSLTLEQQVQLLTGADVWSTHAIPEIGLSRVVMSDGPAGVRGEDFDERHDSVSLPSSSALSATWSVETARNYGQVLGQEARRKGVHAVLGPTINLHRSPLGGRHFECMSEDPRLTATMAAGYVAGVQSMGVGATPKHYLANEAETERFTADSVVDERPLRELYLAAFEDAITEARAWLVMSSYNSINGTTASENKLLETPLSTEWGFDGVVVSDWTGVRSIDAANAHQDLEMPGPVGHWGPKLLAAVNEGRVSREAILEKVTRILRLAARVGSLEGFEPAVTHLPTELNGAAVAREVAVRGAVLVRNKGLLPLDAKALGSVAVIGHNADEARTQGGGSATVMPKYTVSPLEGLRKALPEGVKVTYARGAKVAEGIQAFPRTSLHNPVSNVPGIRVTFLAEDGTEISGEDRLASHLIWFGIGIPDGAASIRMEADWTAETAGVHHLGVGTVGRIRFVLDGTEVFNSELEDDTEVLGAALFDPPKTVHAIDTTAGQSIRIEAEYQLPKEQVIPFTAILLGEETVVAEPQAEIDAAVEAARASDVAVVVVGTNAAIESEGFDRKDLDLPGYQNQLVKAVAAANPRTVVVVNSGSPVLMPWLDTVDAVLLGWFGGQEFGSAVADILLGVEEPGGRLPTTWPSALDDVPVLNTTPTDGKVVYSEGIHIGYRAWLKQQAEGGAAPALPFGFGLGYTTFEFGKAHAPQAVTAGKDLVVHVPVKNTGTRTGREVVQVYVERTESAVERPVRWLAGYAGAHLAPAGTESVEIRIPAKAFAHYDGGWQFEQGTFRLLVGRHAADDFQSLDIELR
- protein production: failed

Sequence: MTAPGSMPLTVIGGFLGAGKTTLLNYLLKVQHSERVLVMVNDFGSINIDAELLDQGRHDRPGVVRLQNGCVCCSIGGDLMQAFLQVMSMPDRPDRIIVEASGVADPTRIAQIGRVSGGLSDEGVITLVDASAVRTLAADKYVGDIVRQQILSADIVLLNKLDLSSDAEIVETRAWLRDLAPRTRVVSCIHGEVDAVSVLGIGAGKVAPDAAGGPVDVPVPDLRRASTRHADTFHSSTLATAHRFDRRRIEYALDALPQTVLRGKGFVELEGEATPALLQLCGSRWTLDPVSTPAPPAGTHLVFIATGGRGVPRFDAPSHFEQALASRDAASADTSNLEHHHHHH
- protein production: not failed

Sequence: MDLIGLRIRNIRKIKQLTLKEAAKGIISVPYLANIENGVKVASFETLMHIAKRLEIPEEALLIGNEDLNKELLQELKQIFDLLVFSNTKEAGDRLDQIAANVDLLCESPVIELSFYWLQAGFYYKTWEFSKAREIERKYLNSNEKRVVESFPPDLLSYYYYGQAVKHSHATCDYQLAVEYWEKSIDLTDKAAFQVVFQVGLCINYICLNNYEPALKHIECAWNLIKRFPSKDQERITAILYLYGYINFQIGFMTEAKRKFEEVLVFFNMYPEAKTMYSFLVRFKLAEIERVEGNHELFDEKIVCLYEELMAHEASEIGFNNNDYLVITELMVIFAEQGSVLEASNLLAIINKVTEQVMEINFFVTYTETLLLYHQNKQSSYEKKMLDLLKKIDESNDPALIERVKKHASKHFADSTKYKMAYNILA
- protein production: failed

Sequence: MSLAEVGSKSVLFVCLGNICRSPIAEAVFRKLVTDEKVSDNWAIDSSAVSDWNVGRPPDPRAVSCLRNHGISTAHKARQITKEDFATFDYILCMDESNLRDLNRKSNQVKNCKAKIELLGSYDPQKQLIIEDPYYGNDSDFEVVYQQCLRCCKAFLEKTYEGHHHHHH
- protein production: not failed

Sequence: MTPASAVPAHPCPPGPNALRRRLLQAALSTGVLASIGTAAPAAASAHATSTPSKPMDLYAYVGSRTTRERNARGDGISVFRVDTQTGGLAPVQLVKDLVNPSFLALNPAGDRLYTVHGDLADISAFAVDRASGRLSFINRQSTQGKNPVHLALDPSGRFVVVTNHIGASLAVLPLAADGALGEVTQLVKLDGPIGPHRIEQKQAKPHFNRFDPAGRFVIVPDKGLDRTFAFRFAEGRLTPATPSFVSAREGAGPRHVAFRPDGRVAYVVNELDSTVTTYGYDAGTATLTPLQVLPSLPDTFTGNSRASEIKVDAAGRFVYASNRGHDSIAVFRIDAASGLLRFVAAEPSLGRTPRFFTIAPGGRFLYALNEDSDSIVAFAIDPHTGRLHPTGTRAQSGSPVCMVFSTPAA
- protein production: failed

From a protein production outcome set (Wang et al. 2014)
